# In patent publication US6335013B1, “Methods and materials relating to CD39-like polypeptides” (Hyseq, Inc., priority 1999, dated 2002):
# B1: CD39-L66: isoform (splice variant) of CD39-L4, amino acid sequence SEQ ID NO: 25 (protein)
# chain: MATSWGTVFFMLVVSCVCSAVSHRNQQTWFEGIFLSSMCPINVSASTLYGIMFDAGSTGTRIHVYTFVQKMPGQLPILEGEVFDSVKPGLSAFVDQPKQGAETVQGLLEVAKDSIPRSHWKKTPVVLKATAGLRLLPEHKAKALLFEVKEIFRKSPFLVPKGSVSIMDGSDEGILAWVTVNFLTGQLHGHRQETVGTLDLGGASTQITFLPQFEKTLEQTPRGYLTSFEMFNSTYKLYTHSYLGFGLKAARLATLGALETEGTDGHTFRSACLPRWLEAEWIFGGVKYQYGGNQEGEVGFEPCYAEVLRVVRGKLHQPEEVQRGSFYAFSYYYDRAVDTDMIDYEKGGILKVEDFERKAREVCDNLENFTSGSPFLCMDLSYITALLKDGFGFADSTVLQAAVLR
# B2: CD39-L4: novel human CD39-like protein, 428 amino acids, amino acid sequence SEQ ID NO: 3; soluble apyrase specific for NDPs (protein)
# chain: MATSWGTVFFMLVVSCVCSAVSHRNQQTWFEGIFLSSMCPINVSASTLYGIMFDAGSTGTRIHVYTFVQKMPGQLPILEGEVFDSVKPGLSAFVDQPKQGAETVQGLLEVAKDSIPRSHWKKTPVVLKATAGLRLLPEHKAKALLFEVKEIFRKSPFLVPKGSVSIMDGSDEGILAWVTVNFLTGQLHGHRQETVGTLDLGGASTQITFLPQFEKTLEQTPRGYLTSFEMFNSTYKLYTHSYLGFGLKAARLATLGALETEGTDGHTFRSACLPRWLEAEWIFGGVKYQYGGNQEGEVGFEPCYAEVLRVVRGKLHQPEEVQRGSFYAFSYYYDRAVDTDMIDYEKGGILKVEDFERKAREVCDNLENFTSGSPFLCMDLSYITALLKDGFGFADSTVLQLTKKVNNIETGWALGATFHLLQSLGISH
# B3: CD39: 510-amino acid cell-surface ecto-apyrase (ATPDase) (protein, UniProt P49961 1-510, looked up)
# Ectonucleoside triphosphate …: MEDTKESNVKTFCSKNILAILGFSSIIAVIALLAVGLTQNKALPENVKYGIVLDAGSSHTSLYIYKWPAEKENDTGVVHQVEECRVKGPGISKFVQKVNEIGIYLTDCMERAREVIPRSQHQETPVYLGATAGMRLLRMESEELADRVLDVVERSLSNYPFDFQGARIITGQEEGAYGWITINYLLGKFSQKTRWFSIVPYETNNQETFGALDLGGASTQVTFVPQNQTIESPDNALQFRLYGKDYNVYTHSFLCYGKDQALWQKLAKDIQVASNEILRDPCFHPGYKKVVNVSDLYKTPCTKRFEMTLPFQQFEIQGIGNYQQCHQSILELFNTSYCPYSQCAFNGIFLPPLQGDFGAFSAFYFVMKFLNLTSEKVSQEKVTEMMKKFCAQPWEEIKTSYAGVKEKYLSEYCFSGTYILSLLLQGYHFTADSWEHIHFIGKIQGSDAGWTLGYMLNLTNMIPAEQPLSTPLSHSTYVFLMVLFSLVLFTVAIIGLLIFHKPSYFWKDMV
# How the values were obtained:
# [1] = tested on: COS-7 cells; assay: Brefeldin A treatment of COS-7 cells transfected with CD39-L4-6His, secretion; format: cell-based; conditions: transfected COS-7 cells, 8 hours, increasing dosages
# [2] = tested on: COS-7 cells; assay: Brefeldin A treatment of COS-7 cells transfected with CD39-L2, secretion; format: cell-based; conditions: transfected COS-7 cells, 8 hours, varying dosages
# [3] = Assay for ATPase activity, [33P]Pi released from [γ33P]ATP; format: biochemical; conditions: transfected COS-7 cells, 10 μCi [γ33P]ATP, one hour, 37° C.
# [4] = Kinetic characteristics of CD39L4 ADP hydrolysis; format: biochemical
# [5] = ADPase and ATPase activity of CD39L4 wild type and ACR mutants, inorganic phosphate released; format: biochemical
# [6] = ADPase activity of CD39-L4 from transfected COS-7 cells, stimulation by divalent cations; format: biochemical; conditions: 1 mM ADP
# [7] = membrane bound or engineered soluble form; cited from earlier work
molecule,measurement,setting,value
C[C@H]1CCC/C=C/[C@@H]2C[C@H](O)C[C@H]2[C@H](O)/C=C/C(=O)O1 [brefeldin A],effect on secretion of CD39-L4-6His,[1],blocked secretion of CD39-L4-6His
same,effect on recombinant CD39-L2 in the media,[2],decreased in a brefeldin A dose dependent manner
B1,increase in ATPase activity over cells transfected with vector alone,[3],at least a four fold increase in activity
B2,increase in ATPase activity over cells transfected with vector alone,[3],at least a four fold increase in activity
same,"cooperativity of ADPase activity, in words",[4],does not appear to possess cooperativity
same,Vmax of ADP hydrolysis,"[4]; 15 mM CaCl2, ADP 0.75-18 mM, 37° C., 15 min, 60 ng protein per reaction, Michaelis-Menten fit",1191 pmol/min
same,Km,"[4]; 15 mM CaCl2, ADP 0.75-18 mM, 37° C., 15 min, Michaelis-Menten fit",12.7 mM
same,"turnover number, kcat, ADP as substrate",[4]; assuming 60 ng protein and 46000 g/mol,15.2 s⁻¹
same,"hydrolysis of ADP, in words",[5]; ADP as substrate,hydrolyze ADP
same,"hydrolysis of ATP, in words",[5]; ATP as substrate,"neither the CD39L4 nor the CD39L4 mutant, ACR III, catalyzed hydrolysis"
same,fold increase in ADPase activity over cells transfected with vector alone,"[6]; CD39-L4-6His from COS-7 medium on Nickel-NTA resin, 37° C., 30 min, no added cation",2.3 fold
same,fold increase in ADPase activity when Ca2+ added,[6]; Ca2+ added,3.6 fold
same,fold increase in ADPase activity when Mg2+ added,[6]; Mg2+ added,6 fold
B3,"hydrolysis of ATP and ADP, in words",[7],able to hydrolyze both ATP and ADP substrates efficiently
